Measurements from publication PMC4631483, “The oxygenating constituent of 3,6-diketocamphane monooxygenase from the CAM plasmid of Pseudomonas putida: the first crystal structure of a type II Baeyer–Villiger monooxygenase” (Acta Crystallographica Section D: Biological Crystallography, 2015).

B1: native 3,6-diketocamphane 1,6-monooxygenase, oxygenating component (enzyme, Pseudomonas putida NCIMB 10007, UniProt D7UER1 1-378, looked up)
chain: MAMETGLIFHPYMRPGRSARQTFDWGIKSAVQADSVGIDSMMISEHASQIWENIPNPELLIAAAALQTKNIKFAPMAHLLPHQHPAKLATMIGWLSQILEGRYFLGIGAGAYPQASYMHGIRNAGQSNTATGGEETKNLNDMVRESLFIMEKIWKREPFFHEGKYWDAGYPEELEGEEGDEQHKLADFSPWGGKAPEIAVTGFSYNSPSMRLAGERNFKPVSIFSGLDALKRHWEVYSEAAIEAGHTPDRSRHAVSHTVFCADTDKEAKRLVMEGPIGYCFERYLIPIWRRFGMMDGYAKDAGIDPVDADLEFLVDNVFLVGSPDTVTEKINALFEATGGWGTLQVEAHDYYDDPAPWFQSLELISKEVAPKILLPKR
notes: 3,6-diketocamphane 1,6-monooxygenase (3,6-DKMO; EC 1.14.13.-), oxygenating component, encoded on the CAM plasmid of Pseudomonas putida NCIMB 10007; monomer 42.3 kDa; residues up to 378 are numbered in the model (A1, A128-133, A176-180, A377-378, B1, B127-135, B176-179 not modelled); also called 3,6-DKMO; native 3,6-DKMO
B2: recombinant (overexpressed) 3,6-diketocamphane 1,6-monooxygenase, oxygenating component, N-terminally hexahistidine-tagged (enzyme, Pseudomonas putida)
chain: B1 chain
notes: 3,6-diketocamphane 1,6-monooxygenase (3,6-DKMO), oxygenating component, the 3,6-DKMO gene of the CAM plasmid of Pseudomonas putida in pET-28b; residues A126-135, A176-179, A377-378, B125-135, B176-179 not modelled in the FMN complex; Crystallised with 20 mM FMN, 5 mM NADH and 5 mM (-)-camphor; only FMN (occupancy 0.6) seen; also called overexpressed 3,6-DKMO; recombinant 3,6-DKMO; source: E. coli …

Legend:
[1] = target: the molecule itself; assay: crystal structure; native apo enzyme; crystals from 50 mM PIPES pH 6.5, 50% ammonium sulfate, room temperature; P212121, two subunits in the asymmetric unit; 1.9 A
[2] = target: the molecule itself; assay: crystal structure; overexpressed enzyme co-crystallised with 20 mM FMN, 5 mM NADH, 5 mM (-)-camphor; 100 mM HEPES pH 7.0, 20% PEG 3350, 18 C; P212121, one dimer in the asymmetric unit; 1.9 A

Protein | stoichiometry N [1] | stoichiometry N [2]
B1 | 2 | 
B2 |  | 2
